Test results published in patent US10829560B2, “Agents binding specifically to human cadherin-17, human cadherin-5, human cadherin-6 and human cadherin-20 RGD motif” (CONSEJO SUPERIOR DE INVESTIGACIONES CIENTÍFICAS, priority 2015, dated 2020).

Assays:
RKO and KM12SM cells [1] = test: Soluble binding assay using CDH17 ectodomain as ligand (flow cytometry); assay type: cell-based, human; conditions: 10 μg/mL, FIG. 3E
Protocol: (§1) For soluble binding assays, cells were detached, incubated for 40 min with CDH17 ectodomain (10 μg/mL) at 37° C. in Ca2+, Mg2+ and Mn2+-free HBSS medium (Life Technologies), washed, incubated with anti-CDH17 antibodies at 4° C., washed again, incubated with secondary antibodies and analyzed by flow cytometry. For cell adhesions to CDH17 Domain 6 (2-10 μg/mL), adhesion assays in 96 wells microtiter plates were performed as above but in medium containing 1 mM MnCl2 and cells were washed gently, using a multi-channel pipette. For blocking assays, cells were preincubated with anti-β1 integrin (5 μg/mL) for 10 min before adhesion.

β1 integrin = molecular target: T1, β1 integrin (Homo sapiens, UniProt P05556+P17301); test: β1 integrin activation by CDH17 proteins or cadherin RGD peptides (HUTS21 flow cytometry); assay type: cell-based; conditions: for β1 integrin in high-affinity conformation: RKO and KM12SM cells, FIG. 5B, 5C; for conformational change of β1-integrin into a high affinity conformation: 9 aa peptides, MDA-MB-468, BLM and RKO cells, FIG. 16; for induction of β1 integrin activation: RKO cells, 1 μg/mL peptide, FIG. 17
T1 construct: endogenous in cells; host or cells: RKO (A4); RKO, KM12SM, MDA-MB-468 and BLM (A9)
Protocol: Cells were detached with 2 mM EDTA in PBS, incubated at 4° C. with primary antibodies (10 μg/ml) for 30 min, washed and incubated with Alexa 488 labelled-secondary antibodies (anti-mouse IgG or anti-rabbit IgG, Dako). Fluorescence was analysed in a Coulter Epics XL cytofluorometer. Mean fluorescence intensities for the indicated antibodies are shown inside each panel. As a reference, irrelevant control antibodies (anti-cadherin-11, Santa Cruz Biotechnologies) gave a mean fluorescence intensity of 0.3.
RKO cells were detached with 2 mm EDTA in PBS, washed with PBS, resuspended in DMEM and incubated with a 9-amino acid peptide containing the RGD motif and the flanking sequences from cadherin 5 (SEQ ID NO: 37 for the RGD motif of domain 2 (CDH5A), and SEQ ID NO: 19 for the RGD motif of domain 3 (CDH5B)), cadherin 6 (SEQ ID NO: 38), cadherin 17 (VSLRGDTRG) (SEQ ID NO: 1), cadherin 20 (SEQ ID NO: 39), and cadherin 16 (SEQ ID NO: 31, RAIRGDTEG) for 25 min at 37° C. in presence of immune sera or control serum (diluted 1:50). After incubation, cells were subjected to flow cytometry assays using anti-β1 integrin in high-affinity conformation antibodies (Huts21, BD Pharmingen) and Alexa 488-coupled anti-mouse IgG antibodies (Abcam). Fluorescence was analysed in a Coulter Epics XL cytofluorometer. Mean fluorescence intensities for the indicated antibodies are shown inside each panel. As a reference, irrelevant control antibodies gave a mean fluorescence intensity of 0.3.
Alternatively, RKO cells were starved for 4 h, detached with EDTA 2 mM in PBS, and incubated in serum-free DMEM with 1 μg/mL of the following peptides: 9 aa peptides including the RGD motifs and the flanking sequences corresponding to the cadherin 17 (SEQ ID NO: 1) and the two motifs present in cadherin-5 (SEQ ID NO: 37 for the RGD motif of domain 2 (CDH5A), and SEQ ID: 19 for the RGD motif of domain 3 (CDH5B)), and 7 aa or 5 aa peptides with 2 aa or 1 aa respectively in each side of the RGD motif corresponding to the sequence of CDH17, SLRGDTR (SEQ ID NO: 32), and LRGDT (SEQ ID NO: 14), respectively. Simultaneously the cells were incubated to the indicated anti-CDH17 RGD monoclonal antibodies (10 μg/mL). After 40 min, cells were washed and subjected to flow cytometry assays using HUTS21 antibody, which binds to β1-integrin in high affinity conformation. Data were collected in a FACScalibur™ cytometer (BD) and represented as % of the β1-integrin activation induced by the 9 aa CDH17 RGD peptide (SEQ ID NO: 1).

RKO and KM12SM cells [2] = test: Cell adhesion to Matrigel after incubation with CDH17 DOM6 or Ecd; assay type: cell-based, human; conditions: FIG. 5D
Protocol: For cell adhesion, 96-well plates were coated with Matrigel (4 μL/mL) (BD Biosciences) or type IV collagen ([…]) (Sigma-Aldrich) in coating buffer (0.1 M NaHCO3 pH 8.8) for 20 h and incubated with adhesion medium (0.4% BSA in serum-free DMEM) for 2 h to block unspecific binding. Cell were starved for 5 h without serum, labeled with BCECF-AM (Invitrogen), detached with 2 mM EDTA in PBS, resuspended in serum-free DMEM and 7×10^4 cells in 100 μL were added to plates in triplicate and then incubated for 25 min. Non-adherent cells were removed by three washes with DMEM. Bound cells were quantified using a fluorescence analyzer (POLARstar Galaxy).

RKO and KM12SM cells [3] = test: Cell adhesion to plates coated with CDH17 domain 6; assay type: cell-based, human; conditions: for inhibition of cell adhesion to CDH17 domain 6 wt: FIG. 4B; for optimal dose for promoting cell adhesion to coated plates: FIG. 4A
Protocol: as §1

T1 sequence (P05556 21-798): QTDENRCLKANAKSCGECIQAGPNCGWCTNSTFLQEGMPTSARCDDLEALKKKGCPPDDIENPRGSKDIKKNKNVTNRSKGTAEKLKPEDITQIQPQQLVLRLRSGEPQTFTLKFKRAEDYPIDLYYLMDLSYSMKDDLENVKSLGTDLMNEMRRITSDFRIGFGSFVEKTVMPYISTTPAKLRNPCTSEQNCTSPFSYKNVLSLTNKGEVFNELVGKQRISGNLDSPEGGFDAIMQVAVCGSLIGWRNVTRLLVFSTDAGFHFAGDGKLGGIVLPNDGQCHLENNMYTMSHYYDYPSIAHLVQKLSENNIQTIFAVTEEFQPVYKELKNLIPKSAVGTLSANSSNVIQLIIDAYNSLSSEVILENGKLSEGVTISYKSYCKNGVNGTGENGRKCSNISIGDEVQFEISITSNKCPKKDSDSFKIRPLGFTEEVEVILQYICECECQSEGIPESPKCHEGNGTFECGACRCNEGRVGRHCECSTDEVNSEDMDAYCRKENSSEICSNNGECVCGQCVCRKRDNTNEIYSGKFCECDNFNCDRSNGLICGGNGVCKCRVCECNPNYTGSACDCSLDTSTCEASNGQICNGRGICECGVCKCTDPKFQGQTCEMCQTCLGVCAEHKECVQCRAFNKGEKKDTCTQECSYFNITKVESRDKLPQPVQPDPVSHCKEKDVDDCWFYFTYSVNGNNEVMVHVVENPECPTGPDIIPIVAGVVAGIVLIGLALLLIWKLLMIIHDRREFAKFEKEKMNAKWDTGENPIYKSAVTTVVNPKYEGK
T1 sequence (P17301 30-1181): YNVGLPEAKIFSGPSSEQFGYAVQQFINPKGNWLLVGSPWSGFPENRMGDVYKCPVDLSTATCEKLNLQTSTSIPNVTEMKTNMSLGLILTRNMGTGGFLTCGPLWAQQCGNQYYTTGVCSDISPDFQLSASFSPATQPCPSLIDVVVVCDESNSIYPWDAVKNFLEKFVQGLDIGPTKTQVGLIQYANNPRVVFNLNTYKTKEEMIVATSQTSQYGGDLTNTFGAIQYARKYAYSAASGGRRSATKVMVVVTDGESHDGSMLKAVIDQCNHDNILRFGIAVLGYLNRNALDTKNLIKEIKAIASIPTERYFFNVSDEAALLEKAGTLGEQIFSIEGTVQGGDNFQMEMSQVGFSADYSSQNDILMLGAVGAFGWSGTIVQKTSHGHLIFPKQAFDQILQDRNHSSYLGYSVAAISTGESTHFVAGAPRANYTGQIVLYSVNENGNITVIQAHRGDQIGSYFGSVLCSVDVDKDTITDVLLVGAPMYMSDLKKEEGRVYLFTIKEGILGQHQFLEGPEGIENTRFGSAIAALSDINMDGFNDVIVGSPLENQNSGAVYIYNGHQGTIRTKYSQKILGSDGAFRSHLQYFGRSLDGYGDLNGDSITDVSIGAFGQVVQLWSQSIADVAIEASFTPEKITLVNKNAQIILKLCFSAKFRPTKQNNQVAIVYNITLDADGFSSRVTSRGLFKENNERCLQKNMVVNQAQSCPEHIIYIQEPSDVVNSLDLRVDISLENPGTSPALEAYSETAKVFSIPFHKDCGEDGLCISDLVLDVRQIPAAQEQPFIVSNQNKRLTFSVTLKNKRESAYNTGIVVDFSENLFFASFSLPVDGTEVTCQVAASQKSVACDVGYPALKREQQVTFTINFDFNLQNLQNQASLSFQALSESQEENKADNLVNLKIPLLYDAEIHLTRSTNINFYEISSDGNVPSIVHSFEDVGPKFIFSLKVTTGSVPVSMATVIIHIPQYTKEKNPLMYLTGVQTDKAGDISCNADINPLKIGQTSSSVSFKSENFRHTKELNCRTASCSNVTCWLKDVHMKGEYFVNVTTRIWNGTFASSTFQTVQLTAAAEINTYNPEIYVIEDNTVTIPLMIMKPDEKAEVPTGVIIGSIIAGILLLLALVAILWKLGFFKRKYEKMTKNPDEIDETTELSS

CDH17 ectodomain: purified recombinant CDH17 ectodomain (wild type) expressed in baculovirus
binding to the cell surface (RKO and KM12SM cells [1]): bound to the cell surface
β1 integrin in high-affinity conformation (β1 integrin): enhanced the amount of β1 integrin in high-affinity conformation
cell adhesion to Matrigel after incubation (RKO and KM12SM cells [2]): significant increase in cell adhesion to Matrigel

DMDRGDGSI (listed as Homo sapiens) [SEQ ID NO: 39]
conformational change of β1-integrin into a high affinity conformation (β1 integrin): induced the conformational change of β1-integrin into a high affinity conformation

DQDRGDGSL (listed as Homo sapiens) [SEQ ID NO: 38]
conformational change of β1-integrin into a high affinity conformation (β1 integrin): induced the conformational change of β1-integrin into a high affinity conformation

Ecd RAD: recombinant CDH17 ectodomain mutant lacking RGD motif (RAD)
binding to the cell surface (RKO and KM12SM cells [1]): unable to bind to cells
cell adhesion to Matrigel after incubation (RKO and KM12SM cells [2]): significantly enhanced

LRGDT (listed as Homo sapiens)
induction of β1 integrin activation (β1 integrin): able to induce efficiently the integrin activation

QGLRGDSGT (listed as Homo sapiens) [CDH5A]
conformational change of β1-integrin into a high affinity conformation (β1 integrin): induced the conformational change of β1-integrin into a high affinity conformation
induction of β1 integrin activation (β1 integrin): able to activate beta1 integrin

RADS [RADS peptide]
inhibition of cell adhesion to CDH17 domain 6 wt (RKO and KM12SM cells [3]; both cell lines): did not inhibit cell adhesion

RAIRGDTEG (listed as Homo sapiens) [SEQ ID NO: 31, reference compound]
conformational change of β1-integrin into a high affinity conformation (β1 integrin): not

RAIRRGDTEG (listed as Homo sapiens) [CDH16 RGD, reference compound]
β1 integrin in high-affinity conformation (β1 integrin): had no effect on β1 integrin activation

RGDS [RGDS peptide]
concentration at which competition of cell adhesion to CDH17 domain 6 wt started (RKO and KM12SM cells [3]; both cell lines, 1 mM MnCl2, FIG. 4B): 1 µM
inhibition of cell adhesion to CDH17 domain 6 wt (RKO and KM12SM cells [3]; both cell lines): clear dose-dependent effect

SILRGDYQD (listed as Homo sapiens) [CDH5 RGD peptide]
conformational change of β1-integrin into a high affinity conformation (β1 integrin): induced the conformational change of β1-integrin into a high affinity conformation
induction of β1 integrin activation (β1 integrin): able to activate beta1 integrin

SLRGDTR (listed as Homo sapiens)
induction of β1 integrin activation (β1 integrin): able to induce efficiently the integrin activation

VSLRGDTRG (listed as Homo sapiens) [CDH17 peptide]
conformational change of β1-integrin into a high affinity conformation (β1 integrin): induced the conformational change of β1-integrin into a high affinity conformation
β1 integrin in high-affinity conformation (β1 integrin): increased high-affinity conformation β1 integrin in both cell lines

B1: domain 6 wt: recombinant CDH17 domain 6 (571-665) expressed in E. coli (protein)
chain: FQAKVSEDVAIGTKVGNVTAKDPEGLDISYSLRGDTRGWLKIDHVTGEIFSVAPLDREAGSPYRVQVVATEVGGSSLSSVSEFHLILMDVNDNPP
optimal dose for promoting cell adhesion to coated plates (RKO and KM12SM cells [3]; KM12SM): 10 µg/mL
optimal dose for promoting cell adhesion to coated plates (RKO and KM12SM cells [3]; RKO): 2 µg/mL
β1 integrin in high-affinity conformation (β1 integrin): enhanced the amount of β1 integrin in high-affinity conformation
cell adhesion to Matrigel after incubation (RKO and KM12SM cells [2]): significant increase in cell adhesion to Matrigel
cell adhesion to Matrigel after incubation (RKO and KM12SM cells [2]; listed as CDH17 DOM6 wt): significantly enhanced
